Where two headings read alike, the source gives them in different places. Blank lines part the entries; values can stand above or below the binder they belong to. Where no end group is shown, it is not given here. [ ]: non-standard residue; d: D form. The star is where a group is joined. DOTA = O=C(O)CN1CCN(CC(=O)O)CCN(CC(=O)*)CCN(CC(=O)O)CC1; 4Abz = Nc1ccc(C(=O)O)cc1; Dap = NC[C@H](N)C(=O)O; AEEA = NCCOCCOCC(=O)O; Me2Gly = CN(C)CC(=O)*; Acm = CC(=O)NC*
Key:
[1] = target: T1, gastrin releasing peptide receptor (GRP-R), human (human, UniProt P30550 1-384); assay: 125I-BBN competition, PC3 cells
T1 construct: whole, on cells; also called GRP receptor; GRP-preferring receptor

[2] = target: T1, gastrin releasing peptide receptor …; assay: 125I-BBN competition, PC3 cells; remark: listed apart in the source
[3] = target: T2, neuromedin-B preferring receptor (NMB-R) of C6 rodent glioblastoma cells (rodent, UniProt P24053 1-390, limits assumed); assay: 125I-NMB competition, C6 cells
T2 construct: whole, on cells; also called C6/NMB-R
T2 sequence (looked up): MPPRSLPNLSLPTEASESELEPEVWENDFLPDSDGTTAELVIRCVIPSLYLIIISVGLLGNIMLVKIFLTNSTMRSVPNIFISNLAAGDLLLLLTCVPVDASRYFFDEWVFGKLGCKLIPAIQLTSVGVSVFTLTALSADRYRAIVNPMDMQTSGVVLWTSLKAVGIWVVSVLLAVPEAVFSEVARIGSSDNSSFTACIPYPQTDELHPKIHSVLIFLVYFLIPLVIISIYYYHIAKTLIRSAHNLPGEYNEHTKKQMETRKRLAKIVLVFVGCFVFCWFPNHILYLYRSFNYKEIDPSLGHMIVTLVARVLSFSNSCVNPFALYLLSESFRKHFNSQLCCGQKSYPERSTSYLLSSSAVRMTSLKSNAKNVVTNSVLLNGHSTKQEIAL
Procedure: The binding parameters obtained from the studies were analyzed using a one-site competition non-linear regression analysis with GraphPad Prism.

[4] = target: T1, gastrin releasing peptide receptor …; assay: 125I-BBN competition, PC3 cells; remark: listed apart in the source
Procedure: (§1) All compounds tested were dissolved in binding buffer and appropriate dilutions were also done in binding buffer. PC3 cells for assay were seeded at a concentration of 2.0×10⁴/well either in 96-well black/clear collagen I cellware plates (Beckton Dickinson Biocoat). Plates were used for binding studies on day 2 post-plating. The plates were checked for confluency (>90% confluent) prior to assay. […] The studies were conducted with an assay volume of 75 μL per well. Triplicate wells were used for each data point. After the addition of the appropriate solutions, plates were incubated for 1 hour at 4° C. Incubation was ended by the addition of 200 μL of ice-cold incubation buffer. Plates were washed 5 times and blotted dry. Radioactivity was detected using either a LKB CompuGamma counter or a microplate scintillation counter.

[5] = target: T1, gastrin releasing peptide receptor …; assay: 125I-BBN competition, PC3 cells; remark: listed apart in the source
Procedure: as §1

[6] = target: T1, gastrin releasing peptide receptor …; assay: displacement of 125I-universal ligand, human tumour sections
[7] = target: T2, neuromedin-B preferring receptor …; assay: 125I-NMB competition, C6 cells; remark: listed apart in the source
[8] = target: T3, bombesin receptor subtype 3 (BB3-R), human (human, UniProt P32247 1-399); assay: receptor autoradiography on human tumour sections
T3 construct: whole, on cells; tissue sections, receptor autoradiography
T3 sequence (looked up): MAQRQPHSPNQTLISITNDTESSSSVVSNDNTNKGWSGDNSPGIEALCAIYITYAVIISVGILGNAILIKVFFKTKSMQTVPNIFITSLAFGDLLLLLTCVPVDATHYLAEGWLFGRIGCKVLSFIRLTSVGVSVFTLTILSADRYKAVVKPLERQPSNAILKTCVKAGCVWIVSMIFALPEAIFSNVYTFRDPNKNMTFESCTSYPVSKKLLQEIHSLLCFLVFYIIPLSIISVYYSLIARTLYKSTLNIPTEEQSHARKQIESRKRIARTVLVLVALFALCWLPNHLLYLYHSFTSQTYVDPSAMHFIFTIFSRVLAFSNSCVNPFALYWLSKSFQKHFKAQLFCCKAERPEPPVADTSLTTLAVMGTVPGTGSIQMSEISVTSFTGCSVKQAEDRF
Source text: Human ileal carcinoid tissue was used as a source for NMB-R, human prostate carcinoma for GRP-R and human bronchial carcinoid for BB3-R subtype receptors.

T1 sequence (P30550 whole entry): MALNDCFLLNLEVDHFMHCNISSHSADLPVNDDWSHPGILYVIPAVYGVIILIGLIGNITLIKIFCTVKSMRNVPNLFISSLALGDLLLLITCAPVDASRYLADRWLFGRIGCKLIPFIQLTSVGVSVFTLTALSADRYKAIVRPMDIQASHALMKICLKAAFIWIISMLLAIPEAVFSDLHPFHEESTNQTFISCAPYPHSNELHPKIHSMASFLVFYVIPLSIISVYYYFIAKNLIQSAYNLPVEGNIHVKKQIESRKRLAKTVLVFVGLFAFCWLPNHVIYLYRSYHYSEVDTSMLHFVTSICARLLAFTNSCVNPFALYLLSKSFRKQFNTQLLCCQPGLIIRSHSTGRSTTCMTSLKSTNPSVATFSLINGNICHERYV

B1: N,N-dimethylglycine-Ser-Cys(Acm)-Gly-2,3-diaminopropionic acid-8-amino-3,6-dioxaoctanoic acid-Gly-BBN(7-14) (peptide)
peptide: {Me2Gly-Ser-Cys(Acm)}-G[Dap][AEEA]GQWAVGHLM-NH2
notes: same M-N-O-P-G as printed for L61, other MS; also called L26
IC50 [1]: 30 nM

B2: N,N-dimethylglycine-Ser-Cys(Acm)-Gly-SS-QWAVGHLM-NH2 (peptide)
peptide: [Me2Gly]SC(Acm)GSSQWAVGHLM-NH2
SMILES: CSCC[C@H](NC(=O)[C@H](CC(C)C)NC(=O)[C@H](Cc1c[nH]cn1)NC(=O)CNC(=O)[C@@H](NC(=O)[C@H](C)NC(=O)[C@H](Cc1c[nH]c2ccccc12)NC(=O)[C@H](CCC(N)=O)NC(=O)[C@H](CO)NC(=O)[C@H](CO)NC(=O)CNC(=O)[C@H](CSCNC(C)=O)NC(=O)[C@H](CO)NC(=O)CN(C)C)C(C)C)C(N)=O
IC50 [2]: 10 nM

B5: DO3A-monoamide-G-Abz4-QWAGHFL-NH2 (peptide)
peptide: {DOTA}-G[4Abz]QWAGHFL-NH2
SMILES: CC(C)C[C@H](NC(=O)[C@H](Cc1ccccc1)NC(=O)[C@H](Cc1c[nH]cn1)NC(=O)CNC(=O)[C@H](C)NC(=O)[C@H](Cc1c[nH]c2ccccc12)NC(=O)[C@H](CCC(N)=O)NC(=O)c1ccc(NC(=O)CNC(=O)CN2CCN(CC(=O)O)CCN(CC(=O)O)CCN(CC(=O)O)CC2)cc1)C(N)=O
notes: also called L224
IC50 [4]: > 500 nM
IC50 [5]: > 500 nM

B7: N,N-dimethylglycine-Ser-Cys(Acm)-Gly-8-amino-3,6-dioxaoctanoic acid-Arg-BBN(7-14) (peptide)
peptide: RQWAVGHLM
modifications: N-terminus: N,N-dimethylglycine-Ser-Cys(Acm)-Gly-8-amino-3,6-dioxaoctanoic acid; C-terminal amide
notes: also called L9
IC50 [1]: 6 nM

B11: N,N-dimethylglycine-Ser-Cys(Acm)-Gly-8-amino-3,6-dioxaoctanoic acid-Asp-BBN(7-14) (peptide)
peptide: DQWAVGHLM
modifications: N-terminus: N,N-dimethylglycine-Ser-Cys(Acm)-Gly-8-amino-3,6-dioxaoctanoic acid; C-terminal amide
notes: also called L10
IC50 [1]: > 50 nM

Binder: {DOTA}-G[4Abz]LWATGHFM-NH2 (also called L227) [DO3A-monoamide-G-Abz4-LWATGHFM-NH2]
IC50 [7]: 0.07 nM
IC50 [3]: 0.8 nM

B14: N,N-dimethylglycine-Ser-Cys(Acm)-Gly-8-amino-3,6-dioxaoctanoic acid-Arg-Gly-BBN(7-14) (peptide)
peptide: RGQWAVGHLM
modifications: N-terminus: N,N-dimethylglycine-Ser-Cys(Acm)-Gly-8-amino-3,6-dioxaoctanoic acid; C-terminal amide
notes: same M-N-O-P-G as printed for L22, other MS; also called L57
IC50 [1]: 50 nM

The remaining lines, values ahead:

IC50 [3]: 2 nM
B3: N,N-dimethylglycine-Ser-Cys(Acm)-Gly-SR-QWAVGHLM-NH2 (peptide)
peptide: [Me2Gly]SC(Acm)GSRQWAVGHLM-NH2
SMILES: CSCC[C@H](NC(=O)[C@H](CC(C)C)NC(=O)[C@H](Cc1c[nH]cn1)NC(=O)CNC(=O)[C@@H](NC(=O)[C@H](C)NC(=O)[C@H](Cc1c[nH]c2ccccc12)NC(=O)[C@H](CCC(N)=O)NC(=O)[C@H](CCCNC(=N)N)NC(=O)[C@H](CO)NC(=O)CNC(=O)[C@H](CSCNC(C)=O)NC(=O)[C@H](CO)NC(=O)CN(C)C)C(C)C)C(N)=O

IC50 [2]: 2 nM
Binder: [Me2Gly]SC(Acm)GSKQWAVGHLM-NH2 [N,N-dimethylglycine-Ser-Cys(Acm)-Gly-SK-QWAVGHLM-NH2]

IC50 [3]: 60 nM
B4: N,N-dimethylglycine-Ser-Cys(Acm)-Gly-KE-QWAVGHLM-NH2 (peptide)
peptide: [Me2Gly]SC(Acm)GKEQWAVGHLM-NH2
SMILES: CSCC[C@H](NC(=O)[C@H](CC(C)C)NC(=O)[C@H](Cc1c[nH]cn1)NC(=O)CNC(=O)[C@@H](NC(=O)[C@H](C)NC(=O)[C@H](Cc1c[nH]c2ccccc12)NC(=O)[C@H](CCC(N)=O)NC(=O)[C@H](CCC(=O)O)NC(=O)[C@H](CCCCN)NC(=O)CNC(=O)[C@H](CSCNC(C)=O)NC(=O)[C@H](CO)NC(=O)CN(C)C)C(C)C)C(N)=O

IC50 [6]: 0.8 nM
B6: ^175Lu-L70 (peptide)
peptide: QWAVGHLM
modifications: N-terminus: 175Lu complex of DO3A-monoamide-Gly-4-aminobenzoic acid; C-terminal amide

IC50 [1]: > 50 nM
B8: N,N-dimethylglycine-Ser-Cys(Acm)-Gly-8-amino-3,6-dioxaoctanoic acid-Glu-BBN(7-14) (peptide)
peptide: EQWAVGHLM
modifications: N-terminus: N,N-dimethylglycine-Ser-Cys(Acm)-Gly-8-amino-3,6-dioxaoctanoic acid; C-terminal amide
notes: also called L13

IC50 [1]: > 50 nM
B9: N,N-dimethylglycine-Ser-Cys(Acm)-Gly-N-1-piperazineacetic acid-Asp-BBN(7-14) (peptide)
peptide: DQWAVGHLM
modifications: N-terminus: N,N-dimethylglycine-Ser-Cys(Acm)-Gly-N-1-piperazineacetic acid; C-terminal amide
notes: also called L33

IC50 [1]: > 50 nM
B10: N,N-dimethylglycine-Ser-Cys(Acm)-Gly-N-4-aminoethyl-N-1-piperazineacetic acid-Asp-BBN(7-14) (peptide)
peptide: DQWAVGHLM
modifications: N-terminus: N,N-dimethylglycine-Ser-Cys(Acm)-Gly-N-4-aminoethyl-N-1-piperazineacetic acid; C-terminal amide
notes: also called L27

IC50 [1]: 4 nM
B12: N,N-dimethylglycine-Ser-Cys(Acm)-Gly-8-amino-3,6-dioxaoctanoic acid-Lys-BBN(7-14) (peptide)
peptide: KQWAVGHLM
modifications: N-terminus: N,N-dimethylglycine-Ser-Cys(Acm)-Gly-8-amino-3,6-dioxaoctanoic acid; C-terminal amide
notes: also called L8

binding result [8]: no binding
B13: ^177Lu-L70 (peptide)
peptide: QWAVGHLM
modifications: N-terminus: 177Lu complex of DO3A-monoamide-Gly-4-aminobenzoic acid; C-terminal amide
notes: also called Lutetium complex of L70

IC50 [7]: > 800 nM
IC50 [3]: > 800 nM
Binder: WAVGHLM-NH2 (also called BBN8-14) [WAVGHLM-NH2]
